Where only a bound is given, the exact number is not on record here.

Data set [1] concerns C7-C7-VP16 (synthetic (Zif268 variant)). The data set is described as follows: cell_activity. As to conditions: HeLa luciferase reporter.
Data set [2] concerns MBP-C7-C7 (six-finger) (synthetic (Zif268 variant, mouse)). The data set is described as follows: EMSA. A general note: Mobility shift assays separate free from complexed probe on a gel.
The subject of data set [3] is MBP-Sp1C-C7 (six-finger) (synthetic (Sp1C/Zif268 variant)). The experiment in a line: EMSA.
Data set [4] relates to Zif268 variant G6 finger 2 helix residues changed (FIG. 9) (synthetic (Zif268 variant)). The data set is described as follows: SPR. (In general: In SPR one partner is held on a chip, and binding of the other changes the refractive index at the surface.)
Data set [5] has as its system Zif268 variant G4 finger 2 helix residues changed (FIG. 9) (synthetic (Zif268 variant)). The data set is described as follows: SPR.
Data set [6] deals with Zif268 variant A14 finger 3 helix residues changed (FIG. 9) (synthetic (Zif268 variant)) (UniProt Q6NTY6). The data set is described as follows: SPR.
Chain of Zif268 variant A14 finger 3 helix residues changed (FIG. 9) (synthetic (Zif268 variant)) (Q6NTY6 whole entry, change not shown): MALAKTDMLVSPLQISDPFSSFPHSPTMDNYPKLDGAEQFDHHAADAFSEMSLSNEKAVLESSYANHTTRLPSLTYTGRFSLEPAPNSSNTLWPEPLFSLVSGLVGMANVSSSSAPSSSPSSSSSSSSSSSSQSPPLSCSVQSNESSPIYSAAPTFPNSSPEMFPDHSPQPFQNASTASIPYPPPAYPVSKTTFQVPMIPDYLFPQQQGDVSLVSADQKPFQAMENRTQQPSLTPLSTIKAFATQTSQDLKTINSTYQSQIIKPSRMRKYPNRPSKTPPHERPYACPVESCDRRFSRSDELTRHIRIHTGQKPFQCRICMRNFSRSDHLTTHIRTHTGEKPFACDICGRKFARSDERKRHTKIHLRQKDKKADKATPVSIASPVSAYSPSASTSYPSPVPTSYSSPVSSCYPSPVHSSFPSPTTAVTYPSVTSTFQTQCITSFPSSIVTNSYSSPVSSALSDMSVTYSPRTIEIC
Data set [7] addresses Zif268 variant C9 finger 1 helix residues changed (FIG. 9) (synthetic (Zif268 variant)) (UniProt Q6NTY6). The data set is described as follows: SPR. The note with it: equivalent to Zif268.
The target in data set [8] is Zif268 displayed on phage (Mus musculus) (UniProt P08046). The experiment in a line: SELEX. The note with it: phage panning, same level as BSA.
For data set [9], the target named is MBP-Sp1C (synthetic (human Sp1 variant)) (UniProt P08047). The data set is described as follows: EMSA. As to conditions: 0.1 mM ZnCl2, RT.
Chain of MBP-Sp1C (synthetic (human Sp1 variant)) (P08047 626-708, change not shown): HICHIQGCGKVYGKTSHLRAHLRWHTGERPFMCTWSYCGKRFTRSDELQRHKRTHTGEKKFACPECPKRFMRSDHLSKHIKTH
Where [10] appears, read: 0.1 mM ZnCl2, 100 mM KCl, poly(dI-dC), RT.
The mark [11] stands for this setting: 9 bp half-site, 0.1 mM ZnCl2, RT.

Chain of Zif268 variant C9 finger 1 helix residues changed (FIG. 9) (synthetic (Zif268 variant)) (Q6NTY6 whole entry, change not shown): as the sequence (Q6NTY6 whole entry, change not shown) above

Take “GCGTGGGCG (double strand) [6x C7 site SV40 promoter reporter]”: in data set [1], the activity (fold activation) came to 3.
Broadly, the Kd is the equilibrium constant for the complex coming apart. “GATGTATGTAGCGGCGGCGGCGGCGGCGTAAGTAATGC (double strand) [(GCG)6 site probe]” returned a Kd in data set [2] (0.1 mM ZnCl2, RT) of 17.3 nM.
Consider “GATGTATGTAGCGTGGGCGGCGTGGGCGTAAGTAATGC (double strand) [C7-C7 site probe]”, for which the Kd in data set [2] (setting [10]) stood at 0.46 nM; in [3] (0.1 mM ZnCl2, RT), 1.8 nM.
Consider “CCTGCGTTGGCGCCCTTTTGGGCGCCAACGCAGG [TTG finger 2 hairpin (HIV-1 subsite)]”, for which the binding signal (fold of Zif268-consensus affinity) in data set [4] (specificity by on-rate) and in [5] (equivalent to Zif268 on its consensus) was 1 throughout.
For “CCTGCGTGGGCGCCCTTTTGGGCGCCCACGCAGG [Z268N consensus hairpin]”, the binding signal (fold lower affinity than Zif268) in data set [6] came to 2. The binding signal (fold weaker than TTG site) in data set [4] and in [5] was 4 throughout. In addition, the binding signal (fold of Zif268 affinity) in [7] turned out to be 1.
TFIIIA fingers 1-3 site (panning): the binding signal (fold less than consensus) in [8] was determined as 9.
Turning to “GATGTATGTAGCGTGGGCGTAAGTAATGC (double strand) [C7 site probe]”, the Kd worked out at 6.1 nM in [2] (setting [11]) and 4.9 nM in data set [3] (setting [11]).
Turning to “GCGTGGGCGGGGGCGGGG (double strand) [6x Sp1C-C7 site SV40 promoter reporter]”, the activity (fold activation) in data set [1] was found to be 3.
On to “GATGTATGTAGGGGCGGGGTAAGTAATGC (double strand) [Sp1C site probe]”, for which the figures for the Kd in data set [9] and in data set [3] (setting [11]) were 40.8 nM and 27.4 nM, respectively.
As to “GATGTATGTAGCGTGGGCGGGGGCGGGGTAAGTAATGC (double strand) [Sp1C-C7 site probe]”, the Kd in [2] (setting [10]) is 2.4 nM; in data set [3] (setting [10]), 0.55 nM.
Take “GCGTGGGCGGCGTGGGCG (double strand) [6x C7-C7 site SV40 promoter reporter]”: the activity (fold activation) in [1] was more than 300.

Values taken from patent US6140466.
